From patent publication US12679878B2, “CRF2 receptor agonists and their use in therapy” (SANOFI, priority 2020, dated 2026)
Blank lines part the entries; values can stand above or below the binder they belong to. Starred links: 1 amine or outer side, 2 acyl side, 3 side chain; linkers in the order of their positions; H or OH if unused. Non-standard residues stand in square brackets, D forms with d. Groups on a side chain read outwards from the residue. *: point of attachment. C18 diacid = O=C(O)CCCCCCCCCCCCCCCCC(=O)*; γGlu = O=C(O)[C@H](CCC(=O)[*:2])N[*:1]; AEEA = NCCOCCOCC(=O)O; Aib = CC(C)(N)C(=O)O

Molecular target: human corticotropin-releasing factor 2α (CRF2 α receptor) (human), Q13324
Sequence (Q13324 20-411): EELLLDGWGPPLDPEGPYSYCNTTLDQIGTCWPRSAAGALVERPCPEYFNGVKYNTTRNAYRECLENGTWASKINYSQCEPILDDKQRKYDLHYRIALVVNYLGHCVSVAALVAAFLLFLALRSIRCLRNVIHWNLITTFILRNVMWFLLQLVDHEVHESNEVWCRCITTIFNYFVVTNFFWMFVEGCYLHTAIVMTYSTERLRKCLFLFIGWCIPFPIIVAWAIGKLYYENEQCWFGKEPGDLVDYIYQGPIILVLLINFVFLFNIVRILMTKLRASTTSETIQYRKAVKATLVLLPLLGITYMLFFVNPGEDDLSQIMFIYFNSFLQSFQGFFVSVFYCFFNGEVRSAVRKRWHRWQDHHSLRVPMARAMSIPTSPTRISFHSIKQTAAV
Assay: cell-based or functional assay

- EC50 [nM], 0% HSA: 0.9 nM
- EC50 [nM], 0.1% HSA: 14 nM
B1: SEQ ID NO: 166 (peptide)
peptide: Ac-IVLSLD[dV]PIKLK([AEEA-AEEA-γGlu-C18 diacid])QILLEQERQK[Aib]QREQAEKNEQILEQV-NH2
SMILES: CC[C@H](C)[C@H](NC(C)=O)C(=O)N[C@H](C(=O)N[C@@H](CC(C)C)C(=O)N[C@@H](CO)C(=O)N[C@@H](CC(C)C)C(=O)N[C@@H](CC(=O)O)C(=O)N[C@@H](C(=O)N1CCC[C@H]1C(=O)N[C@H](C(=O)N[C@@H](CCCCN)C(=O)N[C@@H](CC(C)C)C(=O)N[C@@H](CCCCNC(=O)COCCOCCNC(=O)COCCOCCNC(=O)CC[C@H](NC(=O)CCCCCCCCCCCCCCCCC(=O)O)C(=O)O)C(=O)N[C@@H](CCC(N)=O)C(=O)N[C@H](C(=O)N[C@@H](CC(C)C)C(=O)N[C@@H](CC(C)C)C(=O)N[C@@H](CCC(=O)O)C(=O)N[C@@H](CCC(N)=O)C(=O)N[C@@H](CCC(=O)O)C(=O)N[C@@H](CCCNC(=N)N)C(=O)N[C@@H](CCC(N)=O)C(=O)N[C@@H](CCCCN)C(=O)NC(C)(C)C(=O)N[C@@H](CCC(N)=O)C(=O)N[C@@H](CCCNC(=N)N)C(=O)N[C@@H](CCC(=O)O)C(=O)N[C@@H](CCC(N)=O)C(=O)N[C@@H](C)C(=O)N[C@@H](CCC(=O)O)C(=O)N[C@@H](CCCCN)C(=O)N[C@@H](CC(N)=O)C(=O)N[C@@H](CCC(=O)O)C(=O)N[C@@H](CCC(N)=O)C(=O)N[C@H](C(=O)N[C@@H](CC(C)C)C(=O)N[C@@H](CCC(=O)O)C(=O)N[C@@H](CCC(N)=O)C(=O)N[C@H](C(N)=O)C(C)C)[C@@H](C)CC)[C@@H](C)CC)[C@@H](C)CC)C(C)C)C(C)C

- EC50 [nM], 0% HSA: 3.95 nM
- EC50 [nM], 0.1% HSA: 74.4 nM
B2: SEQ ID NO: 167 (peptide)
peptide: Ac-IVLSLD[dV]PIGLK([AEEA-AEEA-γGlu-C18 diacid])QILLEQERQK[Aib]QREQAEKNEQILEQV-NH2
SMILES: CC[C@H](C)[C@H](NC(C)=O)C(=O)N[C@H](C(=O)N[C@@H](CC(C)C)C(=O)N[C@@H](CO)C(=O)N[C@@H](CC(C)C)C(=O)N[C@@H](CC(=O)O)C(=O)N[C@@H](C(=O)N1CCC[C@H]1C(=O)N[C@H](C(=O)NCC(=O)N[C@@H](CC(C)C)C(=O)N[C@@H](CCCCNC(=O)COCCOCCNC(=O)COCCOCCNC(=O)CC[C@H](NC(=O)CCCCCCCCCCCCCCCCC(=O)O)C(=O)O)C(=O)N[C@@H](CCC(N)=O)C(=O)N[C@H](C(=O)N[C@@H](CC(C)C)C(=O)N[C@@H](CC(C)C)C(=O)N[C@@H](CCC(=O)O)C(=O)N[C@@H](CCC(N)=O)C(=O)N[C@@H](CCC(=O)O)C(=O)N[C@@H](CCCNC(=N)N)C(=O)N[C@@H](CCC(N)=O)C(=O)N[C@@H](CCCCN)C(=O)NC(C)(C)C(=O)N[C@@H](CCC(N)=O)C(=O)N[C@@H](CCCNC(=N)N)C(=O)N[C@@H](CCC(=O)O)C(=O)N[C@@H](CCC(N)=O)C(=O)N[C@@H](C)C(=O)N[C@@H](CCC(=O)O)C(=O)N[C@@H](CCCCN)C(=O)N[C@@H](CC(N)=O)C(=O)N[C@@H](CCC(=O)O)C(=O)N[C@@H](CCC(N)=O)C(=O)N[C@H](C(=O)N[C@@H](CC(C)C)C(=O)N[C@@H](CCC(=O)O)C(=O)N[C@@H](CCC(N)=O)C(=O)N[C@H](C(N)=O)C(C)C)[C@@H](C)CC)[C@@H](C)CC)[C@@H](C)CC)C(C)C)C(C)C
